Results published in patent publication US20240425606A1, “ANTI-IL-11RA ANTIBODIES” (Lassen Therapeutics 1, Inc., priority 2021, published 2024).

T1: IL-11R on STAT3 Reporter (Luciferase)-HEK293 cells (UniProt Q14626 23-422)
T1 sequence (looked up): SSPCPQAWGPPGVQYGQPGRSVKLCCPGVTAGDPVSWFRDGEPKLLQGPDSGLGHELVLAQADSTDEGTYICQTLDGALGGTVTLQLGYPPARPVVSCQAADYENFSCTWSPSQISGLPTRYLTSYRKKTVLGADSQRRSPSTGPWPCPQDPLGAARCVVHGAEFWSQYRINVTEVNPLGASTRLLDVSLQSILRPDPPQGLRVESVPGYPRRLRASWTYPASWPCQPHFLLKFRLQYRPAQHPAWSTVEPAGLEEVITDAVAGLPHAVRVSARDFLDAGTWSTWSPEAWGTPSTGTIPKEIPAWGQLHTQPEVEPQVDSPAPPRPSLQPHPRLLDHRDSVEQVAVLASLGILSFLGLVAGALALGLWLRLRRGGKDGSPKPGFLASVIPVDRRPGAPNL

T2: human IL-11Rα (human, UniProt Q14626 23-363, limits assumed)
T2 construct: Protein coated on ELISA plates and used in solution for BLI; also called hIL-11Rα; hIL-11R
T2 sequence: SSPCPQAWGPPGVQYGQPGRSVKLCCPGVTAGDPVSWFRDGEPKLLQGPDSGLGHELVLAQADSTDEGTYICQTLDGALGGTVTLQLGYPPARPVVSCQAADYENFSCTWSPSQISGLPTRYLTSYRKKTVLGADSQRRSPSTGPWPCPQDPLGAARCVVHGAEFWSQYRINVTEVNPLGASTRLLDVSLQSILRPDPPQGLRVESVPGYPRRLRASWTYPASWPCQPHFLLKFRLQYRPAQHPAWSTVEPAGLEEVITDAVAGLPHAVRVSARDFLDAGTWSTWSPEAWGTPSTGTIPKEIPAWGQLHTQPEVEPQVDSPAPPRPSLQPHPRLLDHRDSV

T3: hIL-11Rα (Homo sapiens, UniProt Q14626)
T3 sequence (Q14626 23-422): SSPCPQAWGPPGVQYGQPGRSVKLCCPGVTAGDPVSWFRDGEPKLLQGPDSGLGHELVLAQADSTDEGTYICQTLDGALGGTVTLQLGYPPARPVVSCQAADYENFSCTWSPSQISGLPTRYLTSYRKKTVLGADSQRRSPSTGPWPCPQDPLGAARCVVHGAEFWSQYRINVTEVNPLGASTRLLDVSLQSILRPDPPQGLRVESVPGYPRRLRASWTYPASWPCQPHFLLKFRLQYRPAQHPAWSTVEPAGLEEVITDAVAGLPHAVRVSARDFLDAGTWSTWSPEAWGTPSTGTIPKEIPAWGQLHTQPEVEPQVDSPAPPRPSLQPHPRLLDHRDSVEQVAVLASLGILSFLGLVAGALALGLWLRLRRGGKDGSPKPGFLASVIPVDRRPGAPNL


Columns and labels:
[1] = target: T1, IL-11R on STAT3 Reporter …; test: cell-based or functional assay
human IL-11Rα [2] = target: T2, human IL-11Rα; test: competitive ELISA, IL-11R coated on plate; competitor: biotinylated TS7 (0.1 µg/mL)
Description: Relative binding activity of the antibodies was tested by competitive ELISA using biotinylated mAbs 8E2 or TS7. Antibodies 8E2 and TS7 were biotinylated using sulfo-NHS Biotin (Thermo Fisher) per the manufacturer's instructions. IL-11R was coated onto ELISA plates (Nunc, MaxiSorp) at 2 μg/mL in PBS, and plates were blocked with 2% BSA in PBS. After washing the plate with water, antibodies to be tested were titrated across the plate in a final volume of 90 μL followed by addition of 10 μL of biotinylated 8E2 or biotinylated TS7, as indicated in Table E1 (0.1 μg/mL final concentration) to each well. Plates were incubated for 2 hours on a plate-shaker, followed by washing and addition of 100 μL/well of streptavidin-HRP (Jackson ImmunoResearch, 1/1000 dilution). After a further 1 hour incubation, plates were washed, developed with Ultra-TMB HRP substrate (Thermo Fisher), and stopped by the addition of 50 μL/well of 2 M sulfuric acid. Plates were read at 450 nm on an iD5 plate reader (Molecular Devices).

human IL-11Rα [3] = target: T2, human IL-11Rα; test: BLI (Octet RED96e), mAb on protein G biosensors, hIL-11Rα in solution
Description: (§1) Association was carried out in the presence of a 2-fold dilution series of hIL-11Rα and was allowed to proceed for 120 seconds; dissociation was measured for 300 to 1200 seconds.

hIL-11Rα = target: T3, hIL-11Rα; test: Kinetic binding analysis by biolayer interferometry (protein G biosensors, Octet RED96e); details: protein G biosensors
Description: as §1

[4] = test system: IL-11 signaling in STAT3 Reporter (Luciferase)—HEK293 cell line; test: Cell-based STAT3 reporter (luciferase) assay for inhibiting IL-11 signaling; design: species or system human; details: compared with TS7 and 8E2
Description: Further testing of the lead mAbs was carried out using a cell-based reporter assay. IL-11 is reported to signal through the STAT3 and ERK pathways. Therefore, a STAT3 reporter cell line in which firefly luciferase gene expression is driven by STAT3 response elements located upstream of a minimal TATA promoter was selected to analyze mAb functional activity. In these cells, IL-11 can activate the endogenous STAT3 allowing it to bind to the STAT3 response elements, inducing transcription of the luciferase reporter gene and resulting in readily detectable luciferase expression. Antibodies to IL-11R which block IL-11 signaling should inhibit expression of IL-11 driven luciferase in these cells.
The STAT3 Reporter (Luciferase)—HEK293 cell line (BPS Bioscience, catalog #79800-P) was grown, passaged, and assayed as per manufacturer's protocols. Cells were added at 25,000 cells per well in a 96-well microtiter dish and incubated at 37° C. for 30-45 min. in 5% CO2 humidified air. Anti-IL-11R mAbs were added as a 3-fold dilution series in duplicate columns or rows, and plates were returned to the incubator for an additional 1 h at 37° C. after which 40 ng/mL IL-11 was added to each well to initiate the signal transduction cascade and luciferase production. Plates were incubated for 18-24 hours at 37° C. and luciferase was detected using a One-Step Luciferase Assay System (BPS Bioscience, cat. no. 60690-1) as per manufacturer's instructions.

Molecule | IC50, STAT3 luciferase reporter assay (HEK293), inhibiting IL-11, Assay 1 [1] [µg/mL] | IC50, STAT3 luciferase reporter assay (HEK293), inhibiting IL-11, Mean [1] [µg/mL] | IC50 (human IL-11Rα [2]) [µg/mL] | Kd (human IL-11Rα [3]) [pM] | koff (human IL-11Rα [3]) [s⁻¹] | kon (human IL-11Rα [3]) [M⁻¹ s⁻¹] | ka (hIL-11Rα; association 120 seconds) [M⁻¹ s⁻¹] | kd (hIL-11Rα; dissociation 300 to 1200 seconds) [s⁻¹] | IC50, STAT3 luciferase reporter assay (HEK293), inhibiting IL-11, Assay 2 [1] [µg/mL] | relative potency at inhibiting IL-11 signaling (in words) [4]
mAb7 (antibody, V domains shown, Expressed as human IgG4 (S228P EU)) VH: EVQLLESGGGLVQPGGSLRLSCAASGFTFSNYAMSWVRQAPGKGLEWVSSIVPYGDLTQYADSVKGRFTISRDNSKNTLYLQMNSLRAEDTAVYYCAKGPGWGSFDLWGRGTLVTVSS VL: DIQMTQSPSSLSASVGDRVTITCQASQDINNYLNWYQQKPGKAPKLLIYDASNLQTGVPSRFSGSGSGTDFTFTISSLQPEDIATYYCQQHESQSPTFGPGTKVDIK | 1 | 1 | 6.9 | < 1 | < 1e-07 | 63500 |  |  |  | 
mAb11: anti-IL-11Rα antibody; VH SEQ ID NO: 213, VL SEQ ID NO: 214; human IgG4 (S228P), kappa light chain (antibody, V domains shown, human IgG4 S228P and kappa constant regions; mAb11 VH Chain; mAb11 VL Chain, anti-IL-11Rα antibody; human IgG4 (S228P), kappa light chain) VH: EVQLLESGGGLVQPGGSLRLSCAASGFTFSWYSMTWVRQAPGKGLEWVSSIVDYGDLTQYADSVKGRFTISRDNSKNTLYLQMNSLRAEDTAVYYCAKGPGWGSFDLWGRGTLVTVSS VL: DIQMTQSPSSLSASVGDRVTITCQASQDINNYLNWYQQKPGKAPKLLIYDASNLQTGVPSRFSGSGSGTDFTFTISSLQPEDIATYYCQQHESQSPTFGPGTKVDIK |  |  |  |  |  |  | 32900 | 0.0181 |  | less potent than TS7
mAb14 (antibody, V domains shown, Expressed as human IgG4 (S228P EU)) VH: EVQLLESGGGLVQPGGSLRLSCAASGFTFSWYSMTWVRQAPGKGLEWVSSIVPYGDLTQYAESVKGRFTISRDNSKNTLYLQMNSLRAEDTAVYYCAKGPGWGSFDLWGRGTLVTVSS VL: DIQMTQSPSSLSASVGDRVTITCQASQDINNYLNWYQQKPGKAPKLLIYDASNLQTGVPSRFSGSGSGTDFTFTISSLQPEDIATYYCQQHESQSPTFGPGTKVDIK | 0.39 | 0.34 | 2 | < 1 | < 1e-07 | 33700 |  |  | 0.28 | 
mAb11 (antibody, V domains shown, Expressed as human IgG4 (S228P EU)) VH: EVQLLESGGGLVQPGGSLRLSCAASGFTFSWYSMTWVRQAPGKGLEWVSSIVDYGDLTQYADSVKGRFTISRDNSKNTLYLQMNSLRAEDTAVYYCAKGPGWGSFDLWGRGTLVTVSS VL: DIQMTQSPSSLSASVGDRVTITCQASQDINNYLNWYQQKPGKAPKLLIYDASNLQTGVPSRFSGSGSGTDFTFTISSLQPEDIATYYCQQHESQSPTFGPGTKVDIK | > 100 | > 100 | > 15 | 550000 | 0.0181 | 32900 |  |  |  | 
mAb13 (antibody, V domains shown, Expressed as human IgG4 (S228P EU)) VH: EVQLLESGGGLVQPGGSLRLSCAASGFTFSWYSMTWVRQAPGKGLEWVSSIVPYGDLTQYADSVKGRFTISRDNSKNTLYLQMNSLRAEDTAVYYCAKPEDWGRFDLWGRGTLVTVSS VL: DIQMTQSPSSLSASVGDRVTITCQASQDINNYLNWYQQKPGKAPKLLIYDASNLQTGVPSRFSGSGSGTDFTFTISSLQPEDIATYYCQQHESQSPTFGPGTKVDIK | 0.05 | 0.12 | 2.3 | < 1 | < 1e-07 | 66700 |  |  | 0.19 | 
mAb9 (antibody, V domains shown, Expressed as human IgG4 (S228P EU)) VH: EVQLLESGGGLVQPGGSLRLSCAASGFTFSWYSMTWVRQAPGKGLEWVSGIVPYGDLTQYADSVKGRFTISRDNSKNTLYLQMNSLRAEDTAVYYCAKGPGWGSFDLWGRGTLVTVSS VL: DIQMTQSPSSLSASVGDRVTITCQASQDINNYLNWYQQKPGKAPKLLIYDASNLQTGVPSRFSGSGSGTDFTFTISSLQPEDIATYYCQQHESQSPTFGPGTKVDIK | 0.11 | 0.1 | 2.3 | < 1 | < 1e-07 | 62200 |  |  | 0.1 | 

More lines, main results first:

IC50, STAT3 luciferase reporter assay (HEK293), inhibiting IL-11, Assay 1 [1] [µg/mL] | IC50, STAT3 luciferase reporter assay (HEK293), inhibiting IL-11, Mean [1] [µg/mL] | IC50 (human IL-11Rα [2]) [µg/mL] | Kd (human IL-11Rα [3]) [pM] | koff (human IL-11Rα [3]) [s⁻¹] | kon (human IL-11Rα [3]) [M⁻¹ s⁻¹] | ka (hIL-11Rα; association 120 seconds) [M⁻¹ s⁻¹] | kd (hIL-11Rα; dissociation 300 to 1200 seconds) [s⁻¹] | IC50, STAT3 luciferase reporter assay (HEK293), inhibiting IL-11, Assay 2 [1] [µg/mL] | Molecule | relative potency at inhibiting IL-11 signaling (in words) [4]
0.42 | 0.41 | 3.6 | < 1 | < 1e-07 | 58100 |  |  | 0.39 | mAb12 (antibody, V domains shown, Expressed as human IgG4 (S228P EU)) VH: EVQLLESGGGLVQPGGSLRLSCAASGFTFSWYSMTWVRQAPGKGLEWVSSIVPYGDLTQYADSVKGRFTISRDNSKNTLYLQMNSLRAEDTAVYYCAKGPGWYSFDLWGRGTLVTVSS VL: DIQMTQSPSSLSASVGDRVTITCQASQDINNYLNWYQQKPGKAPKLLIYDASNLQTGVPSRFSGSGSGTDFTFTISSLQPEDIATYYCQQHESQSPTFGPGTKVDIK | 
0.67 | 0.96 | 6.2 | < 1 | < 1e-07 | 65100 |  |  | 1.25 | mAb8 (antibody, V domains shown, Expressed as human IgG4 (S228P EU)) VH: EVQLLESGGGLVQPGGSLRLSCAASGFTFSSYAMSWVRQAPGKGLEWVSSIVPYGDLTQYADSVKGRFTISRDNSKNTLYLQMNSLRAEDTAVYYCAKGPGWGSFDLWGRGTLVTVSS VL: DIQMTQSPSSLSASVGDRVTITCQASQDINNYLNWYQQKPGKAPKLLIYDASNLQTGVPSRFSGSGSGTDFTFTISSLQPEDIATYYCQQHESQSPTFGPGTKVDIK | 
2 | 2 | > 15 | 496 | 0.000416 | 840000 |  |  |  | mAb10 (antibody, V domains shown, Expressed as human IgG4 (S228P EU)) VH: EVQLLESGGGLVQPGGSLRLSCAASGFTFSWYSMTWVRQAPGKGLEWVSSIVAYGDLTQYADSVKGRFTISRDNSKNTLYLQMNSLRAEDTAVYYCAKGPGWGSFDLWGRGTLVTVSS VL: DIQMTQSPSSLSASVGDRVTITCQASQDINNYLNWYQQKPGKAPKLLIYDASNLQTGVPSRFSGSGSGTDFTFTISSLQPEDIATYYCQQHESQSPTFGPGTKVDIK | 
